Data published in publication PMC10180240, “Semi-Rational Design of L-Isoleucine Dioxygenase Generated Its Activity for Aromatic Amino Acid Hydroxylation” (Molecules, 2023).

What follows are substances tested on T1, N[C@@H](CCc1ccccc1)C(=O)O (assay: succinate release, succinic acid assay kit; Michaelis-Menten fit). Details: 10 mM alpha-KG, 0.5 mM FeSO4, 10 mM ascorbic acid, 50 mM Bis-Tris pH 6.0, 25 °C.
T1 construct: full-length ido (240 aa without tag) in pET-28a(+) NcoI/SalI, expressed in E. coli BL21(DE3), Ni column
Format: biochemical, Bacillus thuringiensis
From the text: (§1) succinate release, succinic acid assay kit; Michaelis-Menten fit on L-isoleucine dioxygenase (IDO)
“L-isoleucine dioxygenase (IDO) (Bacillus thuringiensis; S153A)” gave a Km of 20 ± 0 µM, a Vmax of 0.09 µmol/min/mg and a kcat of 0.05 s⁻¹. It also gave a kcat/Km of 2500 ± 40 M⁻¹ s⁻¹. “L-isoleucine dioxygenase (IDO) (Bacillus thuringiensis; S153Q)” gave a Km of 40 ± 10 µM, a Vmax of 0.21 µmol/min/mg and a kcat of 0.14 ± 0.01 s⁻¹. For the same substance, the kcat/Km was 3500 ± 100 M⁻¹ s⁻¹. For “L-isoleucine dioxygenase (IDO) (Bacillus thuringiensis; S153Y)”, the Km was 20 ± 0 µM, the Vmax was 0.08 µmol/min/mg and the kcat was 0.03 s⁻¹. It also gave a kcat/Km of 1500 ± 40 M⁻¹ s⁻¹. For “L-isoleucine dioxygenase (IDO) (Bacillus thuringiensis; Y143I)”, the Km was 20 ± 0 µM, the Vmax was 0.08 µmol/min/mg and the kcat was 0.04 s⁻¹. For the same substance, the kcat/Km was 2000 ± 80 M⁻¹ s⁻¹.

These substances were tested on T2, N[C@@H](Cc1ccccc1)C(=O)O in the same assay as above. Details: 10 mM alpha-KG, 0.5 mM FeSO4, 10 mM ascorbic acid, 50 mM Bis-Tris pH 6.0, 25 °C.
T2 construct: full-length ido (240 aa without tag) in pET-28a(+) NcoI/SalI, expressed in E. coli BL21(DE3), Ni column
Format: biochemical, Bacillus thuringiensis
From the text: as §1
“L-isoleucine dioxygenase (IDO) (Bacillus thuringiensis; S153A)” showed a Km of 20 ± 0 µM, a Vmax of 0.05 µmol/min/mg and a kcat of 0.03 s⁻¹. The kcat/Km was 1500 ± 50 M⁻¹ s⁻¹. With “L-isoleucine dioxygenase (IDO) (Bacillus thuringiensis; Y143D)” the Km was 40 ± 0 µM, the Vmax was 0.15 µmol/min/mg and the kcat was 0.08 s⁻¹. For the same substance, the kcat/Km was 2000 ± 10 M⁻¹ s⁻¹. With “L-isoleucine dioxygenase (IDO) (Bacillus thuringiensis; Y143I)” the Km was 30 ± 0 µM, the Vmax was 0.1 µmol/min/mg and the kcat was 0.04 s⁻¹. For the same substance, the kcat/Km was 1330 ± 40 M⁻¹ s⁻¹.
